Data published in US11906524B2, “Urea biosensors and uses thereof” (Duke University, priority 2015, dated 2024).
Residue numbers refer to the chain shown, from its start. Names and notes keep the numbering of the source.

B1: csUBP7 V158C: csUBP7 158C cysteine mutant (SEQ ID NO: 38), tested as Acrylodan and Badan conjugates (conjugate)
chain: MSSSESEKEKSEETIKVGILHSLSGTMSISEVSLKDAELMAIEEINNNGGVLGKKLEPIVEDGASDWPTFAEKAKKLLQKDKVAVIFGAWTSASRKAVLPVVEENNGLLFYPVQYEGLESSPNIFYMGAAPNQQIVPAVKWLFDNGKKRFYLLGSDYCFPRTANKIIKAYLKYLGGVVVGEEYTPLGHTDYSSVINKIKAAKPDVVFNTLNGDSNVAFFKQLKDAGIDANTLPVMSVSIAEEEIKGIGPEYLKGHLVTWNYFQSVDTPENKEFVEKYKKKYGEDRVTDDPIEAAYIGVYLWAKAVEKAGSTDVDKVREAAKGIEFNAPEGPVKIDGDNQHLYKTVRIGEILENGQIRELWKTNKPVKPDPYLKGYEWAQGLSEQGGSHHHHHH
modifications: Acrylodan or Badan conjugate; csUBP7_158C (158C substitution mutant with signal peptide replaced with M and a GGSHHHHHH at C-terminus, and also comprising a C89A substitution)
B2: csUBP7 S238C: csUBP7 238C cysteine mutant (SEQ ID NO: 42), tested as Acrylodan and Badan conjugates (conjugate)
chain: B1 chain with C158V, S238C
modifications: Acrylodan or Badan conjugate; csUBP7_238C (238C substitution mutant with signal peptide replaced with M and a GGSHHHHHH at C-terminus, and also comprising a C89A substitution)
B3: csUBP7 F159C: csUBP7 159C cysteine mutant (SEQ ID NO: 39), tested as Acrylodan and Badan conjugates (conjugate)
chain: B1 chain with C158V, F159C
modifications: Acrylodan or Badan conjugate; csUBP7_159C (159C substitution mutant with signal peptide replaced with M and a GGSHHHHHH at C-terminus, and also comprising a C89A substitution)
B4: bsUBP3 T77C: bsUBP3 77C cysteine mutant (SEQ ID NO: 44), tested as Acrylodan conjugate (conjugate)
chain: MKVGILHSLSGTMAISEVSVHDAELIAIQEINQKGGVLGKKLEPVVEDGASDWPTYAEKMRKLLQQDKVAAVFGGWCSASRKAMLPVVEQNNGLLFYPVQYEGMETSPNIFYTGATTNQQIVPAVDWLLKNKGKKFFLIGSDYVFPRTANKIIKAQVKAGGGEIAGEEYTPLGHTNYSTLVSKIKEKQPDVIFNTLNGDSNVAFFKQLKDAGISADDMPVMSASVAEEEIRGIGPDVLKGHYAVWNYFQTTNTSENQTFVKNYKKMNGDSRVTSDPIEAGYNAVYLWAAAVEKAKSFDVDKVKKAADGISFKAPGGTVKIDGDTQHLYKTVRIGQITGDGQFKEVWNSGEPVKPDPYLKTYDWAKGLSKGGSHHHHHH
modifications: Acrylodan conjugate; bsUBP3_77C (77C substitution mutant with signal peptide replaced with M and a GGSHHHHHH at C-terminus)
B5: bsUBP3 A79C: bsUBP3 79C cysteine mutant (SEQ ID NO: 46), tested as Acrylodan conjugate (conjugate)
chain: B4 chain with C77T, A79C
modifications: Acrylodan conjugate; bsUBP3_79C (79C substitution mutant with signal peptide replaced with M and a GGSHHHHHH at C-terminus)

experiment: Temperature- and urea-dependent fluorescence landscapes of fluorescent conjugates (Roche LightCycler); format: binding; design: key: y, yes; n, no; details: Acrylodan conjugate; fluorescent response to urea
Description: We constructed 20 single cysteine mutants in csUBP7, exploring 7 endosteric, 12 peristeric, and 1 allosteric position (FIG. 9). At each position we attached the Prodan-derived fluorophores Acrylodan and Badan, which differ by one methylene group in their thiol-reactive linker. The fluorescent responses of these conjugates was determined initially as a function of urea concentration and temperature (FIG. 10). […] The ligand dependence of the emission spectra shapes was determined for these conjugates (Table 8).
Determination of temperature- and ligand-dependent fluorescence landscapes. […] Urea concentrations were varied from 0-4.8 M in 20 mM KCl, 20 mM MOPS (pH 7.4). […] Temperatures were advanced in 1K steps.
Ratiometric analysis of urea binding. […] 2
For a single urea-binding site, the fractional saturation is given by
[formula] where [L] is the ligand (urea) concentration and Kd the dissociation constant, ^trueKd for ytrue.
To obtain the temperature dependence of the binding reaction, the Kd values of all the individually determined isotherms were fit the Gibbs-Hemholtz equation (Layton and Hellinga, 2010, Biochemistry, 49, 10831-41):
[formula] where ΔGb^•(T) is the standard free energy of binding at 1 M ligand at temperature T,
[formula] Δ^refHb^• and Δ^refSb^• the molar enthalpy and entropy of binding, respectively, at the reference temperature, Tref, and ΔCp,b the heat capacity of the binding reaction.

Molecule	Response
B1	n
B2	n
B3	n
B4	y
B5	y

same assay, conditions: Badan conjugate; fluorescent response to urea

Molecule	Response
B1	n
B2	n
B3	n
